Source: patent publication US20130115626A1 (Genentech, published 2013)

Biological target: T1, full length human NRP1 on transfected HEK-293 cells (human, UniProt O14786 22-923)
T1 construct: whole, on cells; also called HEK-293 cells transfected with human NRP1
Assay: immunohistochemistry on transfected HEK-293 cells, antibody at 1 ug/ml; cells with empty vector as negative control
Description: Immunohistochemistry (IHC) was performed on freshly cut tissue sections following standard procedure. […] The specificity of the anti-NRP1 antibody was assessed using HEK-293 cells transfected with human NRP1 and empty vector as control (see FIGS. 1A and 1B). To assess expression, whole sections were scored semi-quantitatively on a scale of zero (no expression) to three (very strong signal), according to the intensity of chromagen deposition in ≧10% of neoplastic cells or endothelium.

T1 sequence (O14786 22-923): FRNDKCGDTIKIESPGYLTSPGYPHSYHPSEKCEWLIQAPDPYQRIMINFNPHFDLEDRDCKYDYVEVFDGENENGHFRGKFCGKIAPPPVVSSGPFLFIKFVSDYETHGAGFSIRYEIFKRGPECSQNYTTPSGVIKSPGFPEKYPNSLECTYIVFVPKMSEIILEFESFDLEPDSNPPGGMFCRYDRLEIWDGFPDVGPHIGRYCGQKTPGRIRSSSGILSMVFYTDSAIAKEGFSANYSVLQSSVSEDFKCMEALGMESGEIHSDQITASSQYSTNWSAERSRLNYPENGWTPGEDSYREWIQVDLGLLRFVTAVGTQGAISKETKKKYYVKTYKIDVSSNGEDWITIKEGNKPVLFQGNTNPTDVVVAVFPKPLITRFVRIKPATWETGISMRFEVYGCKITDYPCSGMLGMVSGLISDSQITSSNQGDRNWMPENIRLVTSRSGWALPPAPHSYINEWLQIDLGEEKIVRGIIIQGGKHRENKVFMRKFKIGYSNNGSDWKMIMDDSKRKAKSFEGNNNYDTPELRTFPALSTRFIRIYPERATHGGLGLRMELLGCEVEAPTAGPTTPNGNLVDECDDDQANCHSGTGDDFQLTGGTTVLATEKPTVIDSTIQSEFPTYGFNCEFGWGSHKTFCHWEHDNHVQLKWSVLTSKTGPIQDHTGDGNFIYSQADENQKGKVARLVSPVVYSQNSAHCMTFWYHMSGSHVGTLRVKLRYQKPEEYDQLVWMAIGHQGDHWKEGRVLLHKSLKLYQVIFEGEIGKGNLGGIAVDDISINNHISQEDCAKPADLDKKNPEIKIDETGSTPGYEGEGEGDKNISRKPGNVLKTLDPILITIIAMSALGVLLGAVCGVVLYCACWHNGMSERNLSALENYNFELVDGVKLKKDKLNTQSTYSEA

binding result: binds
B1: monoclonal anti-NRP1 antibody 7130 (antibody, V domains shown)
VH: QLVEESGGGLVTPGGTLTLTCTASGFTISNYHMSWVRQAPGKGLEWIGIIYAVSAATWSATWVKGRFTISKTLTTVDLKMTSLTAADTATYFCARVRAPGDSTYYDLWGPGTLVTVSS
VL: AVVMTQTASPVSAVVGGTVTINCQASQTISNNWLSWYQQKPGQPPKLLIYKASILASGVPSRFSGSGSGTEFTLTISGVQCDDAATYYCLYGHYITTSAHNAFGGGTEVVVKG
notes: Rabbit monoclonal antibody from a hybridoma (rabbit immunised with human soluble NRP1)
